This assay has as its target MMPs of HT1080 cells. Nature of the assay: cell-based or functional assay.

Non-standard residues stand in square brackets, D forms with d. Dox = doxorubicin conjugated to the C-terminal Leu; hPhe = N[C@@H](CCc1ccccc1)C(=O)O

B1: acetyl-P-L-G-Hof-(N,N-dimethyl-K)-L-Dox (peptide)
peptide: Ac-PLG[hPhe]K(Me2)L-Dox
Consider B1, for which the Fraction of L-Dox, 0 hours, minus MMP inhibitor is 0; the Fraction of L-Dox, 0 hours, plus MMP inhibitor was found to be 0; the Fraction of L-Dox, 3 hours, minus MMP inhibitor was determined as 0.1; the Fraction of L-Dox, 3 hours, plus MMP inhibitor amounted to 0.004. The Fraction of L-Dox, 5.5 hours, minus MMP inhibitor was 0.2; the Fraction of L-Dox, 5.5 hours, plus MMP inhibitor worked out at 0.01; the Fraction of L-Dox, 8 hours, minus MMP inhibitor is 0.46; the Fraction of L-Dox, 8 hours, plus MMP inhibitor came to 0.02.

For the origin of these results see US20020103133A1.
